Patent US20250215091A1, “Anti-GAL3 Antibodies and Compositions” (Les Laboratoires Servier, priority 2022, published 2025)
Substitutions are numbered along the chain they refer to.

B1: anti-Gal3 antibody B12 (antibody, V domains shown)
VH: EVQLVESGGSLVKPGGSLRLSCAASGFTFSNDDMNWVRQAPGKGLEWISSIDGSSRSIYYADFVKGRFTISRDNAKNSLYLQMNSLRAEDTAVYYCVRSSGYSGGGMDVWGRGTLVTVSS
VL: QSVLTQPASVSGSPGQSITISCAGTSSDVGGSYNVAWYQQHPGKAPKLMIYSDSYRPSGVSNRFSGSKSGNTASLTISGLQAEDEADYYCSSYTSNSARVFGGGTKLEIK
B2: anti-Gal3 antibody E12 (antibody, V domains shown)
VH: EVQLVESGGSLVKPGGSLRLSCAASGFTFSNYAMNWVRQAPGKGLEWISSIYGSSRSIYYADFVKGRFTISRDNAKNSLYLQMNSLRAEDTAVYYCVRSNNAGMDVWGRGTLVTVSS
VL: B1 VL with S32Y, N34D, A36S, S52Y, N96Y, A98T
B3: anti-Gal3 variant antibody E07-G2 (antibody, V domains shown)
VH: B2 VH with S10G, A33N, I48V, S50N, S57Y, F63S, N100Y, N101Y, A102G
VL: QSALTQPRSVSGSPGQSVTISCTGTSSDVGGYYSVSWYQQHPGKAPKLMIYYDSNRPSGVPDRFSGSKSGNTASLTISGLQAEDEADYYCSSYTGYSTRVFGQGTKLEIK
notes: Variant of E07 with framework mutations to germline; captured by anti-human Fc in SPR
B4: anti-Gal3 variant antibody D06-G2 (antibody, V domains shown)
VH: B2 VH with S10G, A33N, I48V, S57Y, F63S, N100G, N101Y, A102G
VL: B3 VL with R8A, V18I, Y33N, S34G, N55Y, P61S, D62N, Y93G, G95D
notes: Variant of D06 with framework mutations to germline; captured by anti-human Fc in SPR
B5: anti-Gal3 variant antibody E07-G1 (antibody, V domains shown)
VH: B2 VH with S10G, A33N, S50N, S57Y, F63S, N100Y, N101Y, A102G
VL: B3 VL
notes: as for B3
B6: anti-Gal3 variant antibody D11-G1 (antibody, V domains shown)
VH: B2 VH with S10G, A33N, S57Y, F63S, N100S, N101Y, A102G
VL: B1 VL with V3A, A23T, S52Y, S95G, N96Y, A98T
notes: Variant of D11 with framework mutations to germline; captured by anti-human Fc in SPR
B7: anti-Gal3 variant antibody D06-G1 (antibody, V domains shown)
VH: B2 VH with S10G, A33N, S57Y, F63S, N100G, N101Y, A102G
VL: B3 VL with R8A, V18I, Y33N, S34G, N55Y, P61S, D62N, Y93G, G95D
notes: as for B4
B8: anti-Gal3 variant antibody D11-G2 (antibody, V domains shown)
VH: B2 VH with S10G, A33N, I48V, S57Y, F63S, N100S, N101Y, A102G
VL: B1 VL with V3A, A23T, S52Y, S95G, N96Y, A98T
notes: as for B6
B9: anti-Gal3 scFv G03 (scFv, V domains shown, not shown: small tags and cut ends)
VH: B2 VH with S57Y, N100Y, A102G
VL: B1 VL with S32Y, S52Y, Y93S, S95G, N96Y, A98T
notes: Periplasmic extract from E. coli; also called G03 (scFv)
B10: anti-Gal3 scFv H10 (scFv, V domains shown, not shown: small tags and cut ends)
VH: EVQLVESGGSLVKPGGSLRLSCAASGFTFSNYYMNWVRQAPGKGLEWISYINGASRDISYADFVKGRFTISRDNAKNSLYLQMNSLRAEDTAVYYCVRSSYGYSNYGSGMDVWGRGTLVTVSS
VL: B1 VL with S52N, S54A, Y55N, Y93N, S95A, N96D, A98T
notes: Periplasmic extract from E. coli; also called H10 (scFv)
B11: anti-Gal3 scFv E02 (scFv, V domains shown, not shown: small tags and cut ends)
VH: EVQLVESGGSLVKPGGSLRLSCAASGFTFSNYAMNWVRQAPGKGLEWISSIYGSSRSISYADFVKGRFTISRDNAKNSLYLQMNSLRAEDTAVYYCVRSSYNYYYGNGMDVWGRGTLVTVSS
VL: B1 VL with S32Y, Y33G, N34G, A36S, S52Y, Y93S, N96Y, A98T
notes: Periplasmic extract from E. coli; also called E02 (scFv)
B12: anti-Gal3 scFv B12 (scFv, V domains shown, not shown: small tags and cut ends)
VH: B1 VH
VL: B1 VL
notes: Periplasmic extract from E. coli; also called B12 (scFv)
B13: anti-Gal3 scFv D11 (scFv, V domains shown, not shown: small tags and cut ends)
VH: B2 VH with A33N, S57Y, N100S, N101Y, A102G
VL: B1 VL with S52Y, S95G, N96Y, A98T
notes: Periplasmic extract from E. coli; also called D11 (scFv)
B14: anti-Gal3 scFv E01 (scFv, V domains shown, not shown: small tags and cut ends)
VH: EVQLVESGGSLVKPGGSLRLSCAASGFTFSNNYMNWVRQAPGKGLEWISNINGASRNIAYADFVKGRFTISRDNAKNSLYLQMNSLRAEDTAVYYCVRSSDYDGGMDVWGRGTLVTVSS
VL: B1 VL with S32N, Y33S, N34Y, A36S, S52Y, Y93S, S95Y, N96G, A98T
notes: Periplasmic extract from E. coli; also called E01 (scFv)
B15: anti-Gal3 scFv H07 (scFv, V domains shown, not shown: small tags and cut ends)
VH: B2 VH with A33N, S50N, Y52D, S57Y, N100Y, N101Y, A102G
VL: B1 VL with S32Y, S52Y, Y93S, S95G, N96Y, A98T
notes: Periplasmic extract from E. coli; also called H07 (scFv)
B16: anti-Gal3 scFv E07 (scFv, V domains shown, not shown: small tags and cut ends)
VH: B2 VH with A33N, S50N, S57Y, N100Y, N101Y, A102G
VL: B3 VL with A3V, R8A, V18I, T23A, P61S, D62N, Q103G
notes: Periplasmic extract from E. coli; also called E07 (scFv)
B17: anti-Gal3 scFv E12 (scFv, V domains shown, not shown: small tags and cut ends)
VH: B2 VH
VL: B1 VL with S32Y, N34D, A36S, S52Y, N96Y, A98T
notes: Periplasmic extract from E. coli; also called E12 (scFv)
B18: anti-Gal3 scFv D06 (scFv, V domains shown, not shown: small tags and cut ends)
VH: B2 VH with A33N, S57Y, N100G, N101Y, A102G
VL: B1 VL with S32Y, Y33N, N34G, A36S, S52Y, Y93G, S95D, N96Y, A98T
notes: Periplasmic extract from E. coli HB2151 (pHEN phagemid); also called D06 (scFv)

Biological target: T1, human full-length Galectin-1 (human, UniProt P09382 2-135)
T1 construct: full-length; Histidine-tagged; also called Hu-Gall; Gall
T1 sequence (P09382 2-135 limits assumed): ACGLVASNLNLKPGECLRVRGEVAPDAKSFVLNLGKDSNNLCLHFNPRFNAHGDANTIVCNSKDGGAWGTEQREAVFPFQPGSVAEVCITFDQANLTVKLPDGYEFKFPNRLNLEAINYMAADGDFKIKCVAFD
Experiment: ELISA on immobilised antigen (3 µg/mL), purified IgG at 15-20 µg/mL, anti-Fab.HRP, OD 450 nm
Protocol: (§1) IgG specificity to Gal3 was tested by checking the absence of binding on human Gall and Gal7 by ELISA.
(§2) Hu-Gall and Hu-Gal7 were immobilized at 3 μg/mL. Purified IgGs were added into the wells (15-20 μg/mL final concentration) and detected with an anti-Fab.HRP antibody. Rabbit antibodies directed against Gall (Abcam ab25138 reference) and Gal7 (Abcam ab108623 reference) were used at 5 μg/mL as antigen-coating positive controls and detected with an anti-rabbit.HRP secondary antibody (7074S-Cell Signaling reference).

Row | Binder | binding result
1 | B1 | no binding (tested: 15-20 µg/mL)
2 | B2 | no binding (tested: 15-20 µg/mL)

Biological target: T2, human full-length Galectin-7 (human, UniProt P47929 1-136)
T2 construct: full-length; Histidine-tagged; also called Hu-Gal7; Gal7
T2 sequence (P47929 whole entry): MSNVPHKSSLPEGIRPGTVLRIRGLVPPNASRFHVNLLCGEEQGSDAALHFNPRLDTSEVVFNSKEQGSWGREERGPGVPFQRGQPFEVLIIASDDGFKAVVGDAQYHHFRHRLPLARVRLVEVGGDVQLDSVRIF
Experiment: as above
Protocol: as §1, §2

Row | Binder | binding result
3 | B1 | no binding (tested: 15-20 µg/mL)
4 | B2 | no binding (tested: 15-20 µg/mL)

Biological target: T3, full length mouse Galectin-3 (mouse, UniProt P16110 2-264)
T3 construct: Printed as 'full length'; recombinant, immobilized through a histidine tag; also called m-Gal3-FL; murine Gal3
T3 sequence (P16110 2-264 limits assumed): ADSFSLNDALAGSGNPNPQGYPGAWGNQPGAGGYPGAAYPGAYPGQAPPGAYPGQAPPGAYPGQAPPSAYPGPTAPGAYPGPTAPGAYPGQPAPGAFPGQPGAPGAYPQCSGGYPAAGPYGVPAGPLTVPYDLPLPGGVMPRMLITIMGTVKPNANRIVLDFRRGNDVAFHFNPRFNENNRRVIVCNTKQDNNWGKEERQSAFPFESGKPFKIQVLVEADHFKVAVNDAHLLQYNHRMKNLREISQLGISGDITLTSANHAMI
Experiment: SPR Biacore T-200, antibody captured by anti-human Fc, Gal3 in solution
Protocol: (§3) The CM5 sensor surface was first immobilized with an anti-human Fc mAb using a standard protocol. The entire sensor surface was first activated by injecting a 1:1 (v/v) mixture of 400 mM EDC and 100 mM NHS at a flow rate of 10 μL/minute for 7 minutes. Monoclonal anti-human Fc antibody (Millipore AP113), 25 μg/mL in Na acetate pH5, 360 s were flowed at 10 μL/minute to reach 10000 RU on both flow cells followed by the injection of 1 M ethanolamine, pH8.5 for 7 minutes at a flow rate of 10 μL/minute. During the entire immobilization procedure, HBS-P was used as the running buffer.
(§4) Antibody samples were prepared at 5 μg/ml and were injected for 30 seconds at 10 μL/minute. In general, 400 to 680 resonance units of antibodies were captured on the chip.

Row | Binder | Kd [nM]
5 | B1 | 3.47
6 | B2 | 7.7

Biological target: T4, full length human Galectin-3 (human, UniProt P17931 2-250)
T4 construct: Printed as 'full length'; recombinant, immobilized through a histidine tag; also called hu-Gal3-FL; Hu-Gal3-FL
T4 sequence (P17931 2-250 limits assumed): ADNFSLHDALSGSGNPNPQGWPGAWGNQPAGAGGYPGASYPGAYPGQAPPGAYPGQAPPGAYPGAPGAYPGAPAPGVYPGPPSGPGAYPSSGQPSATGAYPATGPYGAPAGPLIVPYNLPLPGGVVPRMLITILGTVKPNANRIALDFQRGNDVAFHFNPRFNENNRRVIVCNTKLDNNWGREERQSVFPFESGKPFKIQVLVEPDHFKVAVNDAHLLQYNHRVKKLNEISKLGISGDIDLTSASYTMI
Experiment: as above
Protocol: as §3, §4

Row | Binder | Kd [nM]
7 | B3 | 15
8 | B4 | 6.8
9 | B5 | 12
10 | B1 | 8.8
11 | B6 | 15
12 | B7 | 9.6
13 | B8 | 18
14 | B2 | 6.64

Biological target: T1, human full-length Galectin-1
Experiment: ELISA on His-tag-immobilised antigen (3 µg/mL), periplasmic extract with scFv, anti-scFvTag.HRP, OD 450 nm
Protocol: (§5) Hu-Gal3-FL, Hu-Gal3-CRD, m-Gal3-FL, Hu-Gall and Hu-Gal7 were immobilized at 3 μg/mL final concentration through their histidine tag on functionalized microplates following internal process. Periplasmic extracts containing scFvs were added into the wells and detected with an anti-scFvTag.HRP (horseradish peroxidase) antibody. Rabbit antibodies directed against Gal3 (ab53082-abcam reference), Gall (ab25138-abcam reference), and Gal7 (ab108623-abcam reference) were used at 5 μg/mL as antigen-coating positive controls and detected with an anti-rabbit.HRP secondary antibody (7074S-Cell Signaling reference).

Row | Binder | binding result
15 | B9 | no binding
16 | B10 | no binding
17 | B11 | no binding
18 | B12 | no binding
19 | B13 | no binding
20 | B14 | no binding
21 | B15 | no binding
22 | B16 | no binding
23 | B17 | no binding
24 | B18 | no binding

Biological target: T2, human full-length Galectin-7
Experiment: as above
Protocol: as §5

Row | Binder | binding result
25 | B9 | no binding
26 | B10 | no binding
27 | B11 | no binding
28 | B12 | no binding
29 | B13 | no binding
30 | B14 | no binding
31 | B15 | no binding
32 | B16 | no binding
33 | B17 | no binding
34 | B18 | no binding
